Results from publication PMC8774819.

Biological target: BES1-MBP (Arabidopsis thaliana, UniProt Q9LN63 1-335)
Experiment: EMSA

Chain of BES1-MBP (Q9LN63 whole entry): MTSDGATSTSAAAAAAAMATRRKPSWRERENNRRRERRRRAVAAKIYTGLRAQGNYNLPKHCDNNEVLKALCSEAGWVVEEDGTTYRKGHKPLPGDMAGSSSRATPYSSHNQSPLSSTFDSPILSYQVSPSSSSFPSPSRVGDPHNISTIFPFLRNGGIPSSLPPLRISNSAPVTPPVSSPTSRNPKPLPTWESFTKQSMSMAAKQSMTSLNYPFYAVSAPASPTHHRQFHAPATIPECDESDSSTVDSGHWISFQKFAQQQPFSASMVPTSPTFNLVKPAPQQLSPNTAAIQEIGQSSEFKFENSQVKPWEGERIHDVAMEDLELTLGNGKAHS

| Binder | binding result |
| --- | --- |
| WOX4 promoter probe a (dsDNA) DNA 1: CCATCTGATCACAGCTTGACACACGAATCAGGTTATCCATCGTGTGA DNA 2: TCACACGATGGATAACCTGATTCGTGTGTCAAGCTGTGATCAGATGG | binds |
| WOX4 promoter probe c (dsDNA) DNA 1: GTAACGAGAAAGGCATGCATAGCATTTGCTAGTTTTAACATATAGCA DNA 2: TGCTATATGTTAAAACTAGCAAATGCTATGCATGCCTTTCTCGTTAC | binds |
